T1: mouse FcγRI (mouse, UniProt P26151 25-297)
T1 construct: also called mFcγRI; mouse FcγR1
T1 sequence: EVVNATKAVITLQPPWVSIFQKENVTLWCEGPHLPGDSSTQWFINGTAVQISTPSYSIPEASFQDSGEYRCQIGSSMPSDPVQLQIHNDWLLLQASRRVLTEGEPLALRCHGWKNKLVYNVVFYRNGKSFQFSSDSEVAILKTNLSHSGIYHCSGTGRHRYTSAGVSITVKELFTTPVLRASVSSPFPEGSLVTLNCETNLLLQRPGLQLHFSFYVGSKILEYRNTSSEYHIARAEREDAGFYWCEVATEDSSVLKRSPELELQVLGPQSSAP

T2: mouse FcγRIV (mouse, UniProt A0A0B4J1G0 21-203)
T2 construct: also called mFcγRIV; mouse FcγR4
T2 sequence: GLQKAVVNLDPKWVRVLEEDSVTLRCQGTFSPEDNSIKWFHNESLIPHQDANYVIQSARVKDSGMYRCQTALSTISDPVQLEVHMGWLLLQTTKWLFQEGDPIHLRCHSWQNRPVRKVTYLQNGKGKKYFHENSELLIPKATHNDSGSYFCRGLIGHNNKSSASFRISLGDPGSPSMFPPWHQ

T3: human FcγRIIb (human, UniProt P31994 43-217)
T3 construct: also called human FcγR2b
T3 sequence: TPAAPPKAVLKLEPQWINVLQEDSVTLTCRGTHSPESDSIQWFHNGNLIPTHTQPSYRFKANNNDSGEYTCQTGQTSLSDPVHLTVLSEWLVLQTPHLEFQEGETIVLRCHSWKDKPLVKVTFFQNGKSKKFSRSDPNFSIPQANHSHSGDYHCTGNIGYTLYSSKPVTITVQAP

T4: human FcγRIIIb (NA2) (human, UniProt O75015 17-200)
T4 construct: also called human FcγR3b allelic variant NA2
T4 chain: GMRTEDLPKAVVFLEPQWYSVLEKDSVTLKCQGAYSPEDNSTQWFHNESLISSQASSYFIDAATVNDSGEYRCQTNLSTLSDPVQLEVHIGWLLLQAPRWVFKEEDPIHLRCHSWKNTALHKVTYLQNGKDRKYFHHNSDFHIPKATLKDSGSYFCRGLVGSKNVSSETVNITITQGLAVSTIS

T5: human FcγRIIa (167R) (human, UniProt P12318 36-217)
T5 construct: also called human FcγR2a allelic variant 167R
T5 chain: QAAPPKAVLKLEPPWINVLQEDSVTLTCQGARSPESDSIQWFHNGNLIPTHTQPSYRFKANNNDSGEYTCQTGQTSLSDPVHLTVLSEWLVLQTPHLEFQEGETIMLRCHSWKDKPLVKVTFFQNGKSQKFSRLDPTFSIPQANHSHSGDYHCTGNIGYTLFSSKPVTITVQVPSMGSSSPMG

T6: mouse FcγRIII (mouse, UniProt P08508 31-215)
T6 construct: also called mFcγRIII; mouse FcγR3
T6 chain: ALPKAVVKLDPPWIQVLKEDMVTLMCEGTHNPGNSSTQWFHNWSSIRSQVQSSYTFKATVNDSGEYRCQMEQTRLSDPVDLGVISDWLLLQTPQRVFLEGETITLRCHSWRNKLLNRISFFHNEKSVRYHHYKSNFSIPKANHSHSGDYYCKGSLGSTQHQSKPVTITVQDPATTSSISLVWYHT

T7: human FcγRIIIb (NA1) (human, UniProt O75015 17-200)
T7 construct: also called human FcγR3b allelic variant NA1
T7 chain: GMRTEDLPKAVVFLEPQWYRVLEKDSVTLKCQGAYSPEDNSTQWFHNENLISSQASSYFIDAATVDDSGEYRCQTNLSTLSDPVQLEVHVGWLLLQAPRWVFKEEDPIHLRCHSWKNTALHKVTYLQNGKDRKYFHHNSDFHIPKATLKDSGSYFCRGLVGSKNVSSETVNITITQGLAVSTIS


Tests used:
[1] = molecular target: Zika virus (Asian strain, accession number KF993678) (Zika virus); test: cell-based or functional assay
mouse FcγRI = molecular target: T1, mouse FcγRI; test: SPR (Biacore T200, pH 7.4): His-tagged FcγR captured, antibody alone or 1:1 immune complex with trimeric CD154 injected at 100 nM; response divided by capture level [a]
mouse FcγRIV = molecular target: T2, mouse FcγRIV; test: SPR (Biacore T200, pH 7.4): His-tagged FcγR captured, antibody alone or 1:1 immune complex with trimeric CD154 injected at 100 nM; response divided by capture level [d]
human FcγRIIb = molecular target: T3, human FcγRIIb; test: as above
human FcγRIIIb (NA2) = molecular target: T4, human FcγRIIIb (NA2); test: SPR (Biacore T200, pH 7.4): His-tagged FcγR captured, antibody alone or 1:1 immune complex with trimeric CD154 injected at 100 nM; response divided by capture level [h]
human FcγRIIa (167R) = molecular target: T5, human FcγRIIa (167R); test: SPR (Biacore T200, pH 7.4): His-tagged FcγR captured, antibody alone or 1:1 immune complex with trimeric CD154 injected at 100 nM; response divided by capture level [c]
mouse FcγRIII = molecular target: T6, mouse FcγRIII; test: as above
human FcγRIIIb (NA1) = molecular target: T7, human FcγRIIIb (NA1); test: SPR (Biacore T200, pH 7.4): His-tagged FcγR captured, antibody alone or 1:1 immune complex with trimeric CD154 injected at 100 nM; response divided by capture level [g]
[2] = molecular target: T8, Recombinant soluble E protein (0.8E-His) from DENV-3 (DENV-3, UniProt P27915 281-673)
[3] = molecular target: T8, Recombinant soluble E protein …; test: SPR Biacore T200

Binder | binding result (mouse FcγRIV) | binding result (human FcγRIIb) | binding result (human FcγRIIIb (NA2)) | binding result (human FcγRIIIb (NA1)) | Kd [2] [nM] | other results
DG_3CH1047-SG1106/3CL-SK1 (antibody) heavy: QVQLVQSGPDVEKPGASVKVSCKASGYTFTSYYMHWVRQAPGQGLEWMGVINPRGGSRRSAQKFQGRITMTRDTSTSTVYMELSSLRSEDTAVYYCARGGEALFYDSYTTPFDGGSWWFDPWGQGSLVTVSSASTKGPSVFPLAPSSKSTSGGTAALGCLVKDYFPEPVTVSWNSGALTSGVHTFPAVLQSSGLYSLSSVVTVPSSSLGTQTYICNVNHKPSNTKVDKRVEPKSCDKTHTCPPCPAPEAAGGPSVFLFPPKPKDTLMISRTPEVTCVVVDVSHEDPEVKFNWYVDGVEVHNAKTKPREEQYNSTYRVVSVLTVLHQDWLNGKEYKCKVSNAALPAPISKTISKAKGQPREPQVYTLPPSREEMTKNQVSLTCLVKGFYPSDIAVEWESNGQPENNYKTTPPVLDSDGSFFLYSKLTVDKSRWQQGNVFSCSVLHEALHAHYTRKELSLSP light: not shown |  |  |  |  |  | EC50 (µg/mL), FRNT neutralization, Average [1]: 0.63 µg/mL; EC50 (µg/mL), FRNT neutralization, Expt 1 [1]: 0.33 µg/mL; EC50 (µg/mL), FRNT neutralization, Expt 2 [1]: 0.93 µg/mL
Anti-CD154 antibody with Fc variant LALA + KAES (SG1095) (antibody, human IgG1, kappa, L234A L235A) heavy: EVQLVESGGGSVKPGGSLKLSCAASGFTFSDHYMYWVRQTPEKRLEWVAIISGGGSYTSYPDSMKGRFTISRDNAKNILHLQMSSLKSEDTAMYYCTRESNGKPGFAYWGQGTLVTVSAASTKGPSVFPLAPSSKSTSGGTAALGCLVKDYFPEPVTVSWNSGALTSGVHTFPAVLQSSGLYSLSSVVTVPSSSLGTQTYICNVNHKPSNTKVDKRVEPKSCDKTHTCPPCPAPEAAGGPSVFLFPPKPKDTLMISRTPEVTCVVVDVSHEDPEVKFNWYVDGVEVHNAKTKPREEQYNSTYRVVSVLTVLHQDWLNGKEYKCKVSNAALPAPISKTISKAKGQPREPQVYTLPPSREEMTKNQVSLTCLVKGFYPSDIAVEWESNGQPENNYKTTPPVLDSDGSFFLYSKLTVDKSRWQQGNVFSCSVMHEALHNHYTQKSLSLSP light: not shown | no binding (tested: 100 nM) | no binding (tested: 100 nM) | no binding (tested: 100 nM) | no binding (tested: 100 nM) |  | binding result (mouse FcγRI): no binding (tested: 100 nM); binding result (human FcγRIIa (167R)): no binding (tested: 100 nM); binding result (mouse FcγRIII): no binding (tested: 100 nM)
Anti-CD154 antibody with Fc variant LALA + KWES (SG1088) (antibody, human IgG1, kappa, L234A L235A) heavy: EVQLVESGGGSVKPGGSLKLSCAASGFTFSDHYMYWVRQTPEKRLEWVAIISGGGSYTSYPDSMKGRFTISRDNAKNILHLQMSSLKSEDTAMYYCTRESNGKPGFAYWGQGTLVTVSAASTKGPSVFPLAPSSKSTSGGTAALGCLVKDYFPEPVTVSWNSGALTSGVHTFPAVLQSSGLYSLSSVVTVPSSSLGTQTYICNVNHKPSNTKVDKRVEPKSCDKTHTCPPCPAPEAAGGPSVFLFPPKPKDTLMISRTPEVTCVVVDVSHEDPEVKFNWYVDGVEVHNAKTKPREEQYNSTYRVVSVLTVLHQDWLNGKEYKCKVSNWALPAPISKTISKAKGQPREPQVYTLPPSREEMTKNQVSLTCLVKGFYPSDIAVEWESNGQPENNYKTTPPVLDSDGSFFLYSKLTVDKSRWQQGNVFSCSVMHEALHNHYTQKSLSLSP light: not shown | no binding (tested: 100 nM) | no binding (tested: 100 nM) | no binding (tested: 100 nM) | no binding (tested: 100 nM) |  | 
DG_3CH-SG182/3CL-SK1 (antibody, V domains shown) VH: QVQLVQSGPDVEKPGASVKVSCKASGYTFTSNYIHWVRQAPGQGLEWMGVINPRGGSTASAQKFQGRITMTRDTSTSTVYMELSSLRSDDTAVYYCARGGRALFYDSYTTPRDGGSWWFDPWGQGSLVTVSS VL: DIQLTQSPSSLSASVGDRVTFTCQASQDIRKYLNWYQQKPGKAPKLLIYDASNLKTGVPSRFSGSGSGTDFTFTISSLQPEDVATYYCQQFDDLPITFGQGTRLQIKR |  |  |  |  | 6.35 | 
DG_3CH987-SG182/3CL-SK1 (antibody, V domains shown) VH: QVQLVQSGPDVEKPGASVKVSCKASGYTFTSYYIHWVRQAPGQGLEWMGVINPRGGSRRSAQKFQGRITMTRDTSTSTVYMELSSLRSEDTAVYYCARGGRALFYDSYTTPFDGGSWWFDPWGQGSLVTVSS VL: DIQLTQSPSSLSASVGDRVTFTCQASQDIRKYLNWYQQKPGKAPKLLIYDASNLKTGVPSRFSGSGSGTDFTFTISSLQPEDVATYYCQQFDDLPITFGQGTRLQIKR |  |  |  |  | 0.000988 | 
DG_3CH953-SG182/3CL499-SK1 (antibody, human IgG1, kappa, V domains shown) VH: QVQLVQSGPDVEKPGASVKVSCKASGYTFTSNYIHWVRQAPGQGLEWMGVINPRGGSRRSAQKFQGRITMTRDTSTSTVYMELSSLRSEDTAVYYCARGGRALFYDSYTTPFDGGSWWFDPWGQGSLVTVSS VL: DIQLTQSPSSLSASVGDRVTFTCQASQDIRKYLNWYQQKPGKAPKLLIYDASNLKFGVPSRFSGSGSGTDFTFTISSLQPEDVATYYCQQFDALPITFGQGTRLQIKR |  |  |  |  |  | binding result [3]: binds

From patent US20240190948A1 (Chugai, published 2024)
